Measured values: patent US20070111258A1, “Compositions and methods for modulating the acute phase response” (priority 2005, published 2007)

Key:
UPRE motif [1] = test: UPRE luciferase reporter analysis in COS7 cells; type: cell-based; settings: for activation of luciferase expression from UPRE reporter relative to vector control: absence of Tm
human CRP promoter = test: Human CRP promoter luciferase reporter in H2.35 cells; type: cell-based
Method: (§1) FIG. 10 depicts activation of expression of APR genes in vivo. (A) The nuclear form of CREBH or ATF6 activates expression of the endogenous SAP mRNA in mice. Northern blot analysis of the endogenous SAP mRNA in mice injected with vector expressing the nuclear form of ATF6 (ATF6 p50) or CREBH (CREBH-N). Wild-type C57BL/6J mice at 3 months of age were injected with 80 μg plasmid DNA expressing ATF6 p50, CREBH-N or empty vector DNA through hydrodynamic plasmid DNA tail-vein injection (Miao et al. 2004). Liver samples were collected from mice at 36 hours after injection, and were subjected to Northern blot analysis to detect the murine SAP mRNA levels. Experiments were performed at least 3 times and representative data is shown. (B-C) Nuclear forms of CREBH and ATF6 act synergistically to induce transcription from the human CRP promoter and the UPRE motif. To detect synergistic effects of CREBH and ATF6 on expression of the reporter, vector DNA (15 ng control vector, 10 ng CREBH- and/or 15 ng AFT6-expression vector) was mixed with 100 ng reporter construct and 150 ng pcDNA3-lacZ for transfection of H2.35 cells in one well of a 6-well plate. The amount of luciferase activity was normalized to the amount of β-galactosidase activity.
FIG. 11 depicts the synergistic interaction of CREBH with ATF6 to activate transcription of the major APR genes. (A) Luciferase reporter analysis of trans-activation effects of CREBH on promoters of the murine SAP gene and the human CRP gene in H2.35 cells. H2.35 cells in a 35 mm collagen-coated plate were co-transfected with a control vector or a CREBH expression vector (0.25 μg), the luciferase reporter (0.6 μg) and pcDNA3-LacZ (0.25 μg), and were then cultured in the absence or presence of Tm (5 μg/ml) for 10 hours. (B) CREBH-DN efficiently suppresses CREBH trans-activation on the murine SAP and the human CRP promoters. H2.35 cells were co-transfected with the luciferase reporter construct and a control vector or a vector expressing CREBH-DN, and were then cultured in the absence or presence of Tm (5 μg/ml) for 10 hours. (C) Interaction between ATF6 and CREBH was determined by IP-Western blot analysis. 293T cells were transfected with a control vector or a vector expressing the nuclear/cleaved form of CREBH, and were then cultured in the absence or presence of Tm for 8 hours. Total cell lysates were immunoprecipated by using an anti-human ATF6 polyclonal antibody or an anti-flag antibody and were then subjected to Western blot analysis by using anti-flag antibody or anti-human ATF6 antibody. Expression levels of CREBH in the transfected cells were determined by Western blot analysis of total cell lysates using the anti-flag antibody (lower panel). (D) Luciferase reporter analysis showing trans-activation effects of the nuclear forms of ATF6 or CREBH on the murine SAP and human CRP promoters in H2.35 cells. H2.35 cells in a 35 mm collagen-coated plate were co-transfected with a vector expressing ATF6 p50 or CREBH-N (0.25 μg), the luciferase reporter (0.6 μg) and pcDNA3-LacZ (0.25 μg). (E-F) Luciferase reporter analysis showing synergistic effects of CREBH and ATF6 on transcriptional induction from the murine SAP promoter (E), and the human CRP promoter (F) in H2.35 cells. […]

murine SAP promoter = test: Murine SAP promoter luciferase reporter in H2.35 cells; type: cell-based
Method: FIG. 11 depicts the synergistic interaction of CREBH with ATF6 to activate transcription of the major APR genes. (A) Luciferase reporter analysis of trans-activation effects of CREBH on promoters of the murine SAP gene and the human CRP gene in H2.35 cells. H2.35 cells in a 35 mm collagen-coated plate were co-transfected with a control vector or a CREBH expression vector (0.25 μg), the luciferase reporter (0.6 μg) and pcDNA3-LacZ (0.25 μg), and were then cultured in the absence or presence of Tm (5 μg/ml) for 10 hours. (B) CREBH-DN efficiently suppresses CREBH trans-activation on the murine SAP and the human CRP promoters. H2.35 cells were co-transfected with the luciferase reporter construct and a control vector or a vector expressing CREBH-DN, and were then cultured in the absence or presence of Tm (5 μg/ml) for 10 hours. (C) Interaction between ATF6 and CREBH was determined by IP-Western blot analysis. 293T cells were transfected with a control vector or a vector expressing the nuclear/cleaved form of CREBH, and were then cultured in the absence or presence of Tm for 8 hours. Total cell lysates were immunoprecipated by using an anti-human ATF6 polyclonal antibody or an anti-flag antibody and were then subjected to Western blot analysis by using anti-flag antibody or anti-human ATF6 antibody. Expression levels of CREBH in the transfected cells were determined by Western blot analysis of total cell lysates using the anti-flag antibody (lower panel). (D) Luciferase reporter analysis showing trans-activation effects of the nuclear forms of ATF6 or CREBH on the murine SAP and human CRP promoters in H2.35 cells. H2.35 cells in a 35 mm collagen-coated plate were co-transfected with a vector expressing ATF6 p50 or CREBH-N (0.25 μg), the luciferase reporter (0.6 μg) and pcDNA3-LacZ (0.25 μg). (E-F) Luciferase reporter analysis showing synergistic effects of CREBH and ATF6 on transcriptional induction from the murine SAP promoter (E), and the human CRP promoter (F) in H2.35 cells. To detect synergistic effects of CREBH and ATF6 on reporter gene expression, vector DNA (25 ng control vector, 20 ng CREBH- and/or 25 ng ATF6-expression vector) was mixed with 100 ng reporter construct and 150 ng pcDNA3-lacZ for transfection of H2.35 cells in a 35 mm collagen-coated plate.
Plasmids, pME18S, pME-CREBH Full and pME-CRE1H d™ were kindly provided by Dr. Sumio Sugano (Institute of Medical Science, University of Tokyo, Japan) (Omori et al., 2001). Plasmid pFlag-CREBH Full that expresses a full-length CREBH (amino acids 1-455) was constructed by insertion of a PCR product from pME-CREBH Full into expression vector pFlag-CMV-4 between EcoR I and BamH I. Vector pFlag-CMV-4 is designed for stable, cytoplasmic expression of N-terminal flag fusion proteins in mammalian cells (purchased from Sigma-Aldrich). Plasmid pFlag-CREBH-ΔC that expresses the nuclear form of CREBH (amino acids 1-320) was constructed by insertion of a PCR product from pME-CREBH d™ into pFlag-CMV-4 between EcoR I and BamH I. Plasmid pFlag-CREBH-DN that expresses only the CREBH bZIP domain (amino acids 209-320) was constructed by insertion of a PCR product from pME-CREBH Full into pFlag-CMV-4 between EcoR I and BamH I. The reporter plasmid containing the luciferase gene under control of the human CRP gene, pGL3-CRP, was constructed by insertion of a 637 bp fragment containing 5′-flanking and promoter region of the human CRP gene into luciferase reporter vector pGL3-basic (purchased from Promega, Madison, Wis.) between Sac I and Xho I. The 637 bp 5′-flanking fragment of the human CRP gene was amplified from human genomic DNA by using a forward primer: 5′-[…]-3′; and a reverse primer 5′-[…]-3′. The reporter plasmid containing the luciferase gene under control of the mouse SAP gene, pGL3-SAP, was constructed by insertion of an 863 bp fragment containing 5′-flanking and promoter region of the mouse SAP gene into pGL3-basic between Xho I and Hind III. […]

murine SAP mRNA = test: Endogenous SAP mRNA in liver after hydrodynamic plasmid DNA tail-vein injection (Northern blot); type: in vivo, mouse; settings: wild-type mice; 80 μg plasmid DNA tail vein injection; 36 hours
Method: as §1

UPRE motif [2] = test: UPRE luciferase reporter in H2.35 cells; type: cell-based
Method: as §1, with “The amount of luciferase activity was normalized to the amount of β-galactosidase activity.” left out
At 36 h post transfection, transfected cells were lysed and assayed for luciferase and β-galactosidase activity by using a Tropix Luciferase/β-Galactosidase Dual Light. […] Photons were detected in an Optima II Luminator (MGM Instruments). […]

[3] = H2.35 cells, Tm 5 μg/ml 10 hours, endogenous CREBH
[4] = co-expression with ATF6 p50, absence or presence of ER stress
[5] = co-expression with full-length or cleaved CREBH, absence or presence of ER stress

B1: CREBH-F: flag-tagged full-length CREBH (amino acids 1-455) expressed from a transfected vector (protein, UniProt Q68CJ9 1-461, looked up)
chain: MNTDLAAGKMASAACSMDPIDSFELLDLLFDRQDGILRHVELGEGWGHVKDQQVLPNPDSDDFLSSILGSGDSLPSSPLWSPEGSDSGISEDLPSDPQDTPPRSGPATSPAGCHPAQPGKGPCLSYHPGNSCSTTTPGPVIQVPEASVTIDLEMWSPGGRICAEKPADPVDLSPRCNLTVKDLLLSGSSGDLQQHHLGASYLLRPGAGHCQELVLTEDEKKLLAKEGITLPTQLPLTKYEERVLKKIRRKIRNKQSAQESRKKKKEYIDGLETRMSACTAQNQELQRKVLHLEKQNLSLLEQLKKLQAIVVQSTSKSAQTGTCVAVLLLSFALIILPSISPFGPNKTESPGDFAPVRVFSRTLHNDAASRVAADAVPGSEAPGPRPEADTTREESPGSPGADWGFQDTANLTNSTEELDNATLVLRNATEGLGQVALLDWVAPGPSTGSGRAGLEAAGDEL
modifications: full-length Flag tag
notes: flag-tagged full-length CREBH (amino acids 1-455) expressed from a transfected vector
activation of luciferase expression from UPRE reporter relative to vector control (UPRE motif [1]): approximately 2 fold
activation of luciferase expression from UPRE reporter (UPRE motif [1]; after Tm treatment, 10 hours): more than 10 fold
expression of luciferase under control of the human CRP promoter (human CRP promoter; H2.35 cells, expression of CREBH): significantly activated
expression of luciferase from the SAP reporter relative to vector control (murine SAP promoter; H2.35 cells, Tm 5 μg/ml 10 hours): approximately 14 fold
expression of luciferase from the SAP reporter relative to vector control (murine SAP promoter; H2.35 cells, without Tm): approximately 2.5 fold

B2: CREBH-N: nuclear/cleaved form of CREBH (amino acids 1-320) expressed from a vector (protein, UniProt Q68CJ9 1-320, looked up, fragment)
chain: MNTDLAAGKMASAACSMDPIDSFELLDLLFDRQDGILRHVELGEGWGHVKDQQVLPNPDSDDFLSSILGSGDSLPSSPLWSPEGSDSGISEDLPSDPQDTPPRSGPATSPAGCHPAQPGKGPCLSYHPGNSCSTTTPGPVIQVPEASVTIDLEMWSPGGRICAEKPADPVDLSPRCNLTVKDLLLSGSSGDLQQHHLGASYLLRPGAGHCQELVLTEDEKKLLAKEGITLPTQLPLTKYEERVLKKIRRKIRNKQSAQESRKKKKEYIDGLETRMSACTAQNQELQRKVLHLEKQNLSLLEQLKKLQAIVVQSTSKSAQT
activation of luciferase expression from UPRE reporter relative to vector control (UPRE motif [1]): approximately 18 fold
expression of luciferase from the CRP reporter compared to the controls (human CRP promoter; H2.35 cells): ~11 fold
expression of luciferase from the SAP reporter relative to vector control (murine SAP promoter; H2.35 cells, without Tm): approximately 16 fold
murine SAP mRNA in the liver compared to control vector (murine SAP mRNA): higher levels of the murine SAP mRNA

B3: CREBH-DN: dominant negative truncated CREBH, only the bZIP domain (amino acids 209-320), expressed from plasmid pFlag-CREBH-DN (protein, UniProt Q68CJ9 209-320, looked up, fragment)
chain: HCQELVLTEDEKKLLAKEGITLPTQLPLTKYEERVLKKIRRKIRNKQSAQESRKKKKEYIDGLETRMSACTAQNQELQRKVLHLEKQNLSLLEQLKKLQAIVVQSTSKSAQT
modifications: bZIP domain Flag tag
notes: dominant negative truncated CREBH, only the bZIP domain (amino acids 209-320), expressed from plasmid pFlag-CREBH-DN
luciferase expression from the human CRP promoter in response to ER stress (human CRP promoter; [3]): efficiently suppressed luciferase expression
ATF6-mediated trans-activation on the CRP reporter (human CRP promoter; [4]): efficiently suppressed ATF6-mediated trans-activation
CREBH-induced reporter gene expression, CRP reporter (human CRP promoter; [5]): significantly suppressed the ability for CREBH to induce reporter gene expression
luciferase expression from the murine SAP promoter in response to ER stress (murine SAP promoter; [3]): efficiently suppressed luciferase expression
ATF6-mediated trans-activation on the SAP reporter (murine SAP promoter; [4]): efficiently suppressed ATF6-mediated trans-activation
CREBH-induced reporter gene expression, SAP reporter (murine SAP promoter; [5]): significantly suppressed the ability for CREBH to induce reporter gene expression
ATF6-mediated trans-activation on the UPRE reporter (UPRE motif [2]; co-expression with ATF6 p50): efficiently suppressed ATF6-mediated trans-activation
CREBH-induced reporter gene expression, UPRE reporter (UPRE motif [2]; co-expression with cleaved CREBH): significantly suppressed the ability for CREBH to induce reporter gene expression
